Measured values as given in the domain aggregation screens of Martell et al. (2025).

Assay: soluble fraction after stress (log2 fold change); higher = more stays soluble; pooled small domains, quantitative proteomics
Settings: stress: 50 degC
How it was run: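 After stress at 50°C, the amount of each protein still soluble was measured. This was done on pooled custom libraries of small protein domains, using high-throughput quantitative proteomics. The figure given is a base-two log fold change and stands for aggregation propensity, with higher values meaning more protein stays in solution.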

Sequence	soluble fraction (log2)
HMHLLPAREQVAAYLRKAILRQEIREGTILNLADTARQMGVSVTPVREALQLLAAQGLVRLRPNKGAVVMG	-0.891
HMSKHLWNKVLPKVTTANITNLINQAIRKGEWRMDNKGVVHIIWRYRGKIIEVTGYLKDKVFNVGNAWVR	-0.122
HMGPDALSIGRRVRQVRTARGMTLDELAAAVSRAPSQLSMIETGKREPKLSLLQAIARALGTTIDALLT	-0.176
HMTLYITDQMRKILDYVATNQEIDEKAVMDLLSIQRTRAYLIAKKMTDIGLLQVQGRGKTKTYRLAARS	-1.93
HMHQIFAETVFEDIAFGPRNKGFNEEEVAKQVREAMAFVGLDYDTYAQRSPFQLSGGQMRRVAIAGVVA	-0.0418
HMPSEDELAERLRGAIRQGDILNEGRMPPERALAEHFGVSRARLRLALGLLQEDGTIYRRHGQGTFAT	-0.132
HMEFSYLEEIGHEKGDLIKGLQLIQQKEGYVSDDAVRAVAENFGMSPAEVEGVLTFYAQFKR	-0.061
HMLQARKFTHIQGYEFEAEFLRTNGEFVELQDPQGRKKWFPISNFIQDDKDFIKEQAGNLSS	-0.0494
HMLVKKYTEEETGRQAELSKQLAELSKAYYNTGNSMVDDAVFDKLRDELSSLEKESGFAYDISPNVS	-0.953
HMGLKQADFEELASRIFTVLEEKSMTPAEIVRKLNLEPDRISIVIQYLLDEGKLNIKDGFINNSA	-0.107
HMAVLEGPAGKLGIVRFEANRSFTGMGHERFSSADQAFGTKPAAVVASRLFATGQVAGVHVYGNIITVELA	0.528
HMRSDSEIKEDVLDELMWQPNIDETQIGVIVEKGVVTLTGFVDAYAKKTAALDAVKNVKGVKAVANDIEV	0.131
HMRINIVKSKNAEQLYIIHSYRINGKNTSKIYKKLGTMADLLPLHNHDRDQVLAWAKEQARLATEQYDQEN	-0.855
HMAYWVVKNNQVSLQINRSNYQITSTARALSNGNLGDEIDVKVLQSGVIKKAVVIGKGQVELLR	-1.89
HMGRTKEEIFNILKERIVTLQYEPGKILNEIELSEEFEVSRTPIRTVFQQLEAVKLVSIVPRYGVQVA	-1.27
HMKGSYTVKSGDNLWSIARKFYGGSGSTWTKIYSANKSTIESTARRYGRSSSDNGHWIYPGTVLVIP	0.0541
HMSIQQEATGNRIRELLLNNGYTVKDIQEVMGFENPQAVYKWLSGKSLPNLDNLLILSKVLHTSIEDILV	-0.699
HMKSLLTHAEEFVRNNNGRWMLAETSSKESYSSKQNFYLRNNYSIISEIRDFYSVGDNLLVFGKFFT	0.0992
HMTVMTGSQRRKKILELMRDAKEPLSGGALGKETGVSRHVVVQDIALLRTQGYPIVATARGYIINE	-0.212
HMSSWEDNFSYWIRNVAETLDKDLLNVANSKLEKIIINAALDQTNGKKNEAAILLGLGRNTLAKKIKELG	-0.858
HMAIQGVRLYERTLETGDPWLDRPLSTLSTGTRLIILVRRGGDVLIPKGDTVLLAGDTLVINDS	-3.24
HMTNVETLVRMRLRSIRTTLGYSLDEIAERSNLSASTVSRIETGKRALSIDVLVPLAAALQVSVDDLLRAE	-2.43
HMENTVVMPNLLGKTMTEAKIELKDLSISITLKGSENSSQYAAGQIISQSVDSGTRVAVGSSVEVTIAGS	0.0377
HMPRSLGADLRAIRKGRRLTLTDMAEALDRSVGWVSQVERDISTPSISDLRRMAEILDVPVSLLFG	-2.87
HMSGRIWTDNYGRTIEADVIKVNINRTVLLEFTDKKTKTVSFDTFISKDIQYLEYLLTRRNRGKL	-3.9
HMGYGEQEAEATKYMSLHAIMSADETLSKMYTPENQHKLMTHVMEQNGIKNVKDYLTPPSELP	-0.102

Sequence	soluble fraction (log2)
HMNGNLRAQVLELMGRADYEPLNKSELSRKLDLQGSDRSSLRILMDELERDHSVVRLKKGRFALKVV	-0.853
HMENVRKTEWVTISNDKSQTRTTVYFESGNQKLDKHPQIQGFEYQRTYVEGGVKYYLFVEKGTKLDE	-0.166
HMRQDEKTLLYWIAGHLKREGRQITERSARHLVEQVGTDMENLSREMEKLIAYTMGRTEITGQDIDDI	-1.68
HMASALDFGRYVRSQYSLQEFPLILIAPLNDPHPKEVVRELFNLYLTKPITRSRLFDSLMTVLG	-0.753
HMASIGVGTIVRVANAVNYNGVKVKAWFNDEGYEVTELSGDRAVLKHNGDLFDAFHVSDLEA	-1.29
HMKQVEVPRLVGLTLREAQAVLGQVGLRIGLISRAALLASPREQIVEQIPVAGERNIATPYVNLLVNVP	-0.649
HMPLLADLPNLLRKVLKQHPGRVVDVDLERGRQGREIYHVRVLQENGQVRGLFVDASTGELVS	-0.224
HMKSNESAELGERMLNKALLALHTDSSKISDTQWQKLLRDYGAKNKQEILTDIGLGKRLNVMVAHQLMAMG	-0.0795
HMKETKVIHVHLIFKKTSRFFGSISAIYSEFTAEEIGITEETLRHKGLSDGVSFATKKAIIQQGVLIR	-1.67
HMLGIGANVQKIAQERKISLKELSRRAGIPYTTIYNMVKRDSSRVSPENLQKLADALGVEIGKLYG	0.0652
HMRQYKEMPYRLFLIHLGKGLVDEVELSDKAKLTGKLKNGKIFITDNPRTENFKEQLLLHDVKVKEG	0.12
HMRGVNEISYTTLISEVSGGNVRDVVISGDEITGTFNDGSRFHSFSPDDPQFIERLNDQGVIINVKPL	-0.0829
HMRHRITEKDKQFRIGQQVWHSEYGKGMVLSVDGIGSSARLTVSFVSGKLAKIIGTFVSTEP	-1.68
HMGTDVFIMTGGTRKRGATWSYYFDLGKIDGKRQKKEKGGFKTKKEAETALAKAINEYNNAGA	-0.0903
HMERTVEVVDINDVFSQFLRLYSRERAAGLLSVFKRVEHGLSWQGNPVLLERILSNVFENAIKYAA	-0.0515
HMNLRLKEVLDEKNMSLVTLSEKTGIEKGNLSAISNNKKNPTVETLSKIAKALQISLAELFESPP	0.303
HMVINKRELNVLSIYSRGSEKRAIILFPTGQTKLVKVGDTLNGGRVAAIGTTEIRYIKGGNNLVLKIPQ	-2.41
HMLLKIRPDLDGNEIMKLLNIAAGPNVGKAYEHLLELRLEHGPLGKERAEQELMNWWSARSQ	-1.09
HMEGLESVVPDLRGKSLKSAAIAAGLSGFALSPEGSGIVYKQSPAPGGRYLKGTLIAVWLRT	-0.513
HMVADLSGVGDKDIIVDQFIYHEVLPKETIYSIVKSFNVTSEDLNKNNPFLRANGLRIGQVIRIPLKI	-1.08
HMQEINLIGVTGNDLERSALVKLLDGEIIKLSVGDNLNGGRVVDISAVTLTYLKSGQSITLKLPK	-1.01
HMENINIRNMGIRAVEAAIISLSPDQRTFTWGATNKKLVTVPYEENPYSALAAFFKTDDGIEIYDAIEKRL	-0.892
HMIYRTTSVPIDNISTQKFNLQEGWIEMNKNEVEDFIRQKNLELVVTDSNVMLDKFALNGDPNKFKVFKY	-0.094
HMFNIIARQEIDEILYEYKIENSEDYKNRDPEELAEIYENIKTVQENHDLSDDDVEELLKSIFSDY	-1.02
HMIAANMTISQRIAAALAEYGVMSVKDIAQEVLGATDKKDTEKIRVTLTRDHGKRFRTYSDGTWSLKDWRP	-1.12
HMGQDTTIVVRRGESLLGIAARLLPATDFYTTGELAEGIRTASGMENDRLIPGQTLRVPLNSG	-0.0889

Sequence	soluble fraction (log2)
HMPNILLSVKDASVAISVSSKMVRLLIASGRLKAVNLGKRMTRISLQELTDFAQRQGGNVVLP	-0.147
HMSSPPNPQLAKRYISYSVDDIARLFGIHRHTVREWIKRGLPVIDQQRPLLVQGADLAEFLRKRRA	-0.719
HMDRKARRKYIEQVVNDRKIETQEELLKLLTEAGFETTQATISRDIHALNIVKANDGDGHTHYVQLH	0.144
HMGFLTGNTQGEVNRKTKNQMVNIFLPTTPNPTSGFLLFVPKKDILRLTMTVEEGIKMIISAGMLTPS	-0.173
HMKVSDPEAIKLIEQAQVKVIPFLDISEAADIQIALEELKNSEGTGQTDSAKVRLRNLLSPFSYL	0.269
HMIRDVDYNTFVSMVQEGKVGQVEIQEQNNRILFTDKDERTVYKTAMVPDSDLISRLLEAGVSTS	0.204
HMDEEEKGEVEVPNLIGLTRKEAKKTLEEEGLLIETKESLKTNLDDEYEKIKSQLPKAGIKIKQGSTVYVD	0.0917
HMNLSNVVIRKVQEMILSGELQEGDKLPPEREMTQRLGIGRPALREGLKSLEMLGLVERRHGLGNFIINKV	-0.783
HMGGLIEPLSARELEVLELMSLGKTNQEIARDLVVASGTIKAHAASIYRKLDAANRTEAVTHARELGIL	-0.0084
HMTLTIEDQLRRLRARLGRGRAFLFSDVLVNPHDRTEIAVTLLALLELIKRREAQASQSYLFGPIEVAAA	-1.94
HMVQVDNELTEFSVQSITRGIDALGEVTIRVTAPDGGVYTGRGADNDIIVSSTKAYLNALNRLLNDK	-0.229
HMGKRPTIQMVAEMAGVSRGTVDRVLNGRSYVSAQVRQRVLAALQETGYISSREHHQQALQS	-0.0246
HMYDAEAINKFFDIENWDFGETFYFQELSAYIMNQLSPKLVTILIVPRQTTQAFGSLFEIKSEPDEIFAS	-0.107
HMNNDSQYLATLQRYYAEHRVLPSYARMLPLLGFASKAAVKKVLERLEVVGMLERTEDGDWAPSERFFER	-1.7
HMKRIDTILETFAKVHKHIPSKLILLGDGPELLDMRKIARSLHIEDDVLFLGKQDQVSKFYQMADLVLLL	-0.0419
HMKHRFVVGEVLSIGKLQHEITLKTAQGERKFQLDKQDLPASIQDGAKVRAELNEAGRVIDVHPLK	0.355
HMTMTKELGQRIRAERTARKMTQEELAERADLHPTYIGQVERGEKSLTIASLEKIVEGLGISFSDLFEN	-0.0406
HMEALASESVKDKIRKIIDSEDPSRPMSDQRIKEMLKAANIDIARRTVTKYREAMNILSSTKRRQV	-0.272
HMDVPVEVFMERIVTALREGRKTTFSELMEGKPERGKVIGTFLALLQLSKGQQIQIHQEQRTGEISIEGGA	-0.315
HMNPFPDNTAEVLSQFKNIIVPELNTGQLSKLLRARYLVDTVGINKVEGLPFTAQELEEKIESLINSF	-0.323
HMKVTGSVQKKKGYYYIVVRLPTKNGTQYEQKQKWFNTKLKATPRNKTAAQVILAEKLTEYGGIV	-2.8
HMKEEDYEVFMRLINVRGIGPKSALNILGVISGQEMIQAIENDDIKRLKSLPGIGAKTAGQIVLDLKGKFV	-0.649
HMDISRMNLSQTERAVLSVLDSQPLHTEEIIASADLRAGAIHSALISLQLKGLIKQLPGNLYVK	-0.0722
HMRPTAWDQISDWLDRHGSIANADVVRIAGLDTLKASKLLTTWREQGLLEPLPGRGKRNMAYVRAI	-0.554
